Experimental data taken from article PMC10897455, “TMEM25 is a Par3-binding protein that attenuates claudin assembly during tight junction development” (EMBO Reports, 2023).

Molecular target: the molecule itself
Assay: pull-down; GST- and MBP-tagged TMEM25-ECR incubated for 1 h at 4 °C in 150 mM NaCl, 0.1% Triton X-100, 20 mM Tris-HCl pH 7.6; glutathione-Sepharose beads; CBB staining or anti-MBP immunoblot

B1: TMEM25-ECR (residues 27–220), GST- or MBP-tagged (domain or fragment, human, UniProt Q86YD3 27-220, looked up)
chain: ELEPQIDGQTWAERALRENERHAFTCRVAGGPGTPRLAWYLDGQLQEASTSRLLSVGGEAFSGGTSTFTVTAHRAQHELNCSLQDPRSGRSANASVILNVQFKPEIAQVGAKYQEAQGPGLLVVLFALVRANPPANVTWIDQDGPVTVNTSDFLVLDAQNYPWLTNHTVQLQLRSLAHNLSVVATNDVGVTSAS
notes: extracellular region (ECR), residues 27–220; bacterially expressed, non-glycosylated; also called GST–TMEM25-ECR; MBP–TMEM25-ECR; source: E. coli BL21, purified (glutathione-Sepharose 4B or amylose resin)
B1: binds.
